Source: PMC4259407, “HAX1 regulates E3 ubiquitin ligase activity of cIAPs by promoting their dimerization” (Oncotarget, 2014)

Molecular target: T1, full-length His-tagged cIAP2 (UniProt Q13489 1-604)
T1 construct: also called His-cIAP2; source: E. coli BL21 (DE3), purified (Ni-NTA)
Experiment: pull-down; in vitro dimerization assay: purified His-cIAP2 and GST-BUCR with HAX1 or HAX1N (0, 0.5 and 5 μg), preincubated at 4°C for 30 min; Ni-NTA agarose, 4 h at 4°C; 20 mM HEPES, 100 mM NaCl, 5% glycerol, 0.1 mg BSA, 0.1% Triton X-100; blots with anti-His and anti-GST; more complex with HAX1, no effect of HAX1N
Settings: both partners purified

binding result: binds
B1: GST-tagged cIAP2 fragment (GST-BUCR) (domain or fragment, UniProt Q13489 251-604, looked up)
chain: SMQTHAARFKTFFNWPSSVLVNPEQLASAGFYYVGNSDDVKCFCCDGGLRCWESGDDPWVQHAKWFPRCEYLIRIKGQEFIRQVQASYPHLLEQLLSTSDSPGDENAESSIIHFEPGEDHSEDAIMMNTPVINAAVEMGFSRSLVKQTVQRKILATGENYRLVNDLVLDLLNAEDEIREEERERATEEKESNDLLLIRKNRMALFQHLTCVIPILDSLLTAGIINEQEHDVIKQKTQTSLQARELIDTILVKGNIAATVFRNSLQEAEAVLYEHLFVQQDIKYIPTEDVSDLPVEEQLRRLQEERTCKVCMDKEVSIVFIPCGHLVVCKDCAPSLRKCPICRSTIKGTVRTFLS
notes: cIAP2 residues 251-604 (printed as BUCT in the methods, BUCR in the results), cloned into the GST-tagged vector pGEX-6p-1; also called BUCT (a.a 251–604); source: E. coli BL21 (DE3), purified (glutathione-Sepharose 4B)
